Measured values from the nanobody polyreactivity screen of Harvey et al. (2022).

assay: yeast display, Sf9 membrane polyspecificity reagent, FACS + sequencing; frameworks hold sequencing errors
In short: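 After 36–48 hours of galactose induction, yeast (Saccharomyces cerevisiae BJ5465) displaying a synthetic nanobody library were stained at 4 °C for 1 hour with 10% biotinylated, detergent-solubilized Sf9 membrane reagent. Streptavidin microbeads enriched the stained cells before FACS sorting into low and high (top ~1%) gates on anti-HA and streptavidin fluorescence. Each clone's polyreactivity label reflects its gate of origin.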

Sequence | polyreactivity (PSR sort gate)
QVQQQESGGGLVQAGGSLRLSCAASGYISVVIGMGWYRQSPGKERELVASIAYGAITYYTDSVKGRFTISRDYAKNTEYLQMNSLKAEDTAVYYCAADQPPLAYHWYWGQGTQATVSS | high polyreactivity
QVQLQESGGGLVQAGGSLRLSCAASGTISTDSYMGWYRQAPGKESKFVATIGYGGITYYADSVKGRSTISRDSAKNTVYLQMNILKPEDTAVYYCAVNSYYPDHYWYWGRGTQVTVSS | high polyreactivity
QVQLVESGGGLVQAGGSLRLSCAASGSIFPSYGMGWYRQAPGKERELVARITSGGGTNYADSVKGRFTISRDNAKNTVYLQMNSLKPEDTAVYYFNKAFRGSQGHRGHYRYGYWGQGTQVTVSS | high polyreactivity
QVQLVESGGGVVQAGGSLRISCDASGRTFWNYAMGWYRQAPGLERELVAVIRFSDGSTYYADSVKGRFTISRDNAKNTVYLQRNSLKPEDTAVYYCAAKGPRRWGSGFDYWGQGTQVTVSS | low polyreactivity
QVQLVESGGGLVQAGGSLRLSCAASGRIFAYYAMGWYRQAPGKERELVAAINTSGAPTNYADSVKGRFTISRDNAKNTVYLQMISLKPEDTAVYYCAARRARYHVEYYYWGQGTQVTVSS | high polyreactivity
QVQLVESGGGLVQAGGSLRLSCAASGSTFVGYAMGWYRQAPGKERELVAAISRSGGRTYYADSVKGRFTISRDNAKNTVYLQMNSLKPEDTAVYYCYPYYIASTFDYWGQGTQVTVSS | high polyreactivity
QVQLVESGGGLVQAGGSLRLSCAASGNIFGVYAMGWYRQAPGKERELVAAIRYSTVSTYYADSVKGRFTISRDKAKNTVYLQMNSLKPQDTAVYNSAAHRYYWSLYGYDYWGHGTQVTVSS | high polyreactivity
QVQLVESGGGLVQAGGSLRLSCAASGFIFPDYAMGWYRQAPGKERELVAAISFRDGSTYYADSVKGRFTISRDNAKNTVYFQINSLKPEDTAVYYCNAGPQYDVHEYYYWGQGSQVTVSS | low polyreactivity
QVQLVESCGGLVQAGGSLRLSCAASGSTFRTYAMGWYRQAPGKERELVASIDSTGSTNYADSVKGRFTISSDNAKNSVYLQMNSLKPEDTAVYDCAAETYSYPPFYAYDYWGQGTQVTVSS | low polyreactivity
QVPLVESGGGLVQAGGSLSLSCAASGNIFPSYVMGWYSQAPGKERELVAAITGNGGSTYYADSVKGRFTISRDNAKNTVYLQMNSLTAEDTEVYYCATSAPRLLRYDSSSSPSYDNWGQGTKVTVSS | low polyreactivity
QVQLVESGGALVQAGGSLRLSCAASGRIFGVYAMGWYRQAPGKERELVAAITRGASTYYADSVKGRFTISRDNSKNTVYLQMNSLKPEDTAVYYCAVSQYRGIYRKYDYWGHGTQVTVSS | high polyreactivity
QVQLVESGGGLVQAGCSLRLSCAASGSIYPYAMGCYRQAPGKESELVAAINFNGGRTYYAHSVNGRFTISRDNAKNTVYLQMTSLKPDVTAFYYCAARISVYSTLPNDFDYWGQGTQVTVSS | high polyreactivity
QVQLVESGGGLVQAGGSLRLSCAATGYTFFRNTMGWYRQAPGKESELVAVITKSGGSTYYADSVKWRFTISRDNAKNTVYLHMNSLIPEDTAVYYCNAVTALRNTEYNYWGQGTQVTVSS | high polyreactivity
QVQLVESGGGLVQAGGSLRLSCAASGRIFTKYAMGWYRQAPGKERELVAAISSRGGSTYYADSVKGRFTISRDNAKNTVYLQMNSLKPEDTAVYYCAAGYLPRYYYTPQFDGDYWGQGTQVTVSS | high polyreactivity
QDHLVESGGGLVQAGGSLRLSCAASGSTFGKNTMGWYRQAPGKERELVAAISRGVSTYYADSVKGSFTISRDNAKNTVYLQMNSLKPEDTAVYYCAAQEAYRWYGYYYWGQGTQVTVSS | high polyreactivity
QVQLLESGGVLDQAGGSLRLTCAASGSIFFTNAMGWYRQAPGKERELVAAIRQSGGSTFYADSVKGRFTISRDNAKNTVYLQLNSLKPEDTAVFYCNADGRHKWQYSSYDYWGQGTQLTVSS | low polyreactivity
QVQLVESGGGIVQSGGSLGLSCAASGYTFRTNVMGWYRQAPGKERELVATINWRGGSTYYADSVKGRFTISRDTAKNTVYLQMNSLKPEDTAVYYCAKTYSYYRTMDYWGQGTQVTGSS | low polyreactivity
QVQLVESGGGLVQAGGSLRLSCAASGRTFNYNAMGCYRQAPGKERELVAAITSGGRTNYADSVKGRFTISRDNAKNTVYLQMNSLKPEDTAVYYCATEYYRYRWVGAFRYPVYYWGQGTQVTVSS | low polyreactivity
QVQLVESGGGLVQAGGSLRLSCAASGNTFTTYAMGWYRQAPGKERELVAVISRSGGRTYYADSVKGRFTISRDNAKNTVYLQMNSLKPEDTAVYYCATRTYATSEYGYWGQGTQVTVSS | high polyreactivity
QVQLVESGGGLVQAGCSLRLSSAASGSTFLGYAMGWYRQAPGKERELVAAITYSAGSTYYADSVKGRFTISRDNAKNTVYLQMNSLKPEDTAVYYCSKRYSGYDHWGQGTQVTVSS | low polyreactivity
QVQLVESGGGLVQAGGSLRLSCAASGSTFVYYAMGWYRQAPGKERELVAASTYADSVKGRFTISRDNAKNTVYLQMNSLKPEDTAVYYCAADFVSAYFTIYDYWGQGTQVTVSS | low polyreactivity
QVQRVESGGGLVQAGGSLRLRCAASGRIFQGNAMGWYRQAPGKERELVAAITWRGGTTYYADSVKGRFTISRDNAKNTVYLQMNSLKPEDTAVYYCNADWWRTLESDYWGQGTQVTVSS | low polyreactivity

Sequence | polyreactivity (PSR sort gate)
QVQLQESGGGLVQAGDSLRLSCAASGTISGRDSMGWYRQAPGKEREFVASIDFGTNTYYADSVKGRFTISRDNAKNTVYLQMNRLTAVYYCAAPDSQYSYWGQGTQVTESS | high polyreactivity
QFQLEESGGGLVQAGGSLRLSCAASGSTFLRYAMGWYRQAPGKERELVAAITGRGTRTYYADSVKGRFTISRDNAKNTVYLQMNSLKPEDTAVYYCAAELSFTPRYYEGRIFYYWGQGTQVTVSS | high polyreactivity
QVQLVESGGGIVQAGRSLRLSCPASGLIFGPYTMGWYRQAPGKERELVAAISRSGGITYYADSVKGRFTISRDNATNTVYLQMNSLKPEDTAVYYCAARLVRESEPLGYWGQGTQVTLSS | high polyreactivity
QVQLVESGGGLVQAGGSLRLSCAASGSTFLVYAMGWYRQAPGKERELVAVITRGVRTFYADSVKGRFTFSRDNAKNTVYLQMNSLKPEDTAVYYCAKERYNANYDTSLYDYWGQGTQVTVSS | low polyreactivity
QVHLVESGGGLVQAGGSLRLSCAASGSIYHGNAMGWYRQAPGKERELVATISSGGSTYYADSLKVRFTISRDNAKNTVYLQMNSLKPEDTAVYYCAAERFWPYKSYYRGQGTQVTVSS | low polyreactivity
QVQLVESGGGLVQAGGSLRLSCAASGRTFTSYAMGWYRQEHGKERELVAGISSGGSTNYADSVKGRFTLSRDNAKNTVYLQMNSLKPEDTAVYYWAAGFSPGSYDAPTLAFEYWGQGTQVTVSS | low polyreactivity
QVQLVESGGGLVQAGCSLRLSCSASGRIFGYYAKGWYRQAPGKERELVARISGRGGSTYYADSVKVRFSISRDNAQKTVILQMNSLNPEDTAVYYCNVVLSFWKYYAYDQGDYWGQGTQVTVSS | low polyreactivity
QVQLVESGGGLVQAGVSLRLSCAASGSIFYYYAMGWYRPAPGKERELVAAITRSGGSTYYADSVKGRFTISRDNAKNTVYLQMNSLKPEDTAVYYCAKDAHAYRDLDYWGQGTQVTVSS | low polyreactivity
HVQLVESGGGLVEAGGSLRLSCAASGYISYVNAMGWYRQAPGKERELVATISIRGGRTYYADSVKGRFTISRDNAKNTVYLQMNSLKPEDTAVYYCNVRRAYYRRGPYYSTYYYWGQGTQVTVSS | high polyreactivity
QVQLVESGGGLVQAGGSLRLSCAASGSTFWYYAMGWYRQAPGKERQLVAAISRNGVSTYYADSVKGRFTISRDIAKNTVYLQMNSMKPEDTAVYYCNVVTKFTGRGYDYWGQGTQVTVSS | high polyreactivity
QVQLVESGGGLVQAGGSLRLSCAASGRTCDIYAMGWYRQAPGKERELVAAISSGGSTYYADSVKGRFTISRDNAKNTVYLQMNSLKPEDTAVYYCAVRWYDQVSRRGIGYYWGQGTLVTVSS | low polyreactivity
QVQLVESGGGLVQAGRSLRLSCAASGRIFRFKTMGWYRQSPGKERELVAAITYSGGGTYYADSVKGRFTISRDNAKNTVYLQMNSLKPEDTAVYYCAATLYLRTIDDYWGQGTQVTVSS | high polyreactivity
QLQLQEGGGGLLQAGGSLRLSCAASGYISYGDVMGWYRQAPGEERELVASIGLDATTNYADSVKGRFTISRDNSKNTVYLQMNSLKPEDTAVYYCPADRGAPFSLHYWGQGTQVTVSS | high polyreactivity
QVQLVESGGGLVQAGGSLRLSCAASGSTFPPNAMGWYRQAPGKERELVAVISNGGSNTRYADSVKGRFTISRDIAKNTVYLQMNSLKPEDTAVYYCAADYEYSGYGYWGQGTQVTVSS | high polyreactivity
QVQLVESGGGLVQAGGSLRLSCAASGRIFEINARGWYRQAPGKERELVAAITRSGGSTYYADSVKGRFTISRDNAKNTVYFQMNSLTPEDTAVYYCAARGRYWYSRYYSWGQGTQVTVSS | high polyreactivity
QVQLVESGVGLVQAVGSLRISCAASGRIFQPYAMGWYRQAPGNERELVARITRRGVSTYYADSVKGRFTISRENAKNTVYLQMNSLKPEDTAVYYCAAELFGGYYYWGLGTQVTVSS | high polyreactivity
QVQLVESGGGLVQAGGSLRLSCAASGRIFVGYAMGWYRQAPGKERELVAAITKSGGRTYYADSVKGRFTISRDNAKNTVYLQMNSLKPEDTAVYFCAKYLGRQHEKDLGGMNYWGQGTQLTVSS | high polyreactivity
QVQLVESGGGLGQAGGSLLLSCAASGSTFKYNAMGWNRKAPGKERELVPAISRGGRTNYADSVKGRFKISRDNAKNTVYLQMNSLKPEDTAVYYCAKDVAGLFHVGALYYYWGQGTQVTVSS | low polyreactivity
QVQLGESGGGLVQAGGSLRLSCAASGIIFRYYAMAWYRQAPGKERELVAAISSSTGNTYYADSVKGRFTISRDNAKNTVYLQMNSLIPEDTAVYYCAARTRQISIVGYNYWGQGTQVTVSS | high polyreactivity
QVQLVESGGGLVQAGGSLRLSCAASGRTFIRNVMGWYRQAPGKERELVAAISTRGGSTYYADSVKGRFTISRDIAKNTVYLQMNSMKPEDTAVYYCASVIRCRYSYYEYDYWGQGTQETVSS | high polyreactivity
QVQLVESGGGLVQAGGSLRLSCAASVITYFVYAMGWYRQAPGKERELVAAITSGDSTSYADSVKGRFTISRDNAKNTVYLQMNSLKPEDTAVYYCAAEQVTIEDGVYFDFNSWGQGTQVTVSS | low polyreactivity
